Measured values reported in publication PMC4608358.
“And” between values parts separate entries of the source, which are not always exact repeats. Equal entries are not always repeated.

How the values were obtained:
[1] = molecular target: wildtype hamster BiP, N-terminally hexahistidine-tagged (hamster) (UniProt G3I8R9); assay: native gel or EMSA; purified BiP diluted to a series of concentrations, equilibrated 48 hr at room temperature, native-PAGE immunoblot; share of species II and III against concentration; crude estimate
[2] = molecular target: wildtype hamster BiP, N-terminally hexahistidine-tagged (hamster) (UniProt G3I8R9); assay: SEC-MALS; wildtype BiP 90 µM, Superdex 200 Increase 10/300 in HKM, room temperature

Sequence of wildtype hamster BiP, N-terminally hexahistidine-tagged, G3I8R9 19-654 (natural protein; other documents disagree on this pair) (G3I8R9 19-654): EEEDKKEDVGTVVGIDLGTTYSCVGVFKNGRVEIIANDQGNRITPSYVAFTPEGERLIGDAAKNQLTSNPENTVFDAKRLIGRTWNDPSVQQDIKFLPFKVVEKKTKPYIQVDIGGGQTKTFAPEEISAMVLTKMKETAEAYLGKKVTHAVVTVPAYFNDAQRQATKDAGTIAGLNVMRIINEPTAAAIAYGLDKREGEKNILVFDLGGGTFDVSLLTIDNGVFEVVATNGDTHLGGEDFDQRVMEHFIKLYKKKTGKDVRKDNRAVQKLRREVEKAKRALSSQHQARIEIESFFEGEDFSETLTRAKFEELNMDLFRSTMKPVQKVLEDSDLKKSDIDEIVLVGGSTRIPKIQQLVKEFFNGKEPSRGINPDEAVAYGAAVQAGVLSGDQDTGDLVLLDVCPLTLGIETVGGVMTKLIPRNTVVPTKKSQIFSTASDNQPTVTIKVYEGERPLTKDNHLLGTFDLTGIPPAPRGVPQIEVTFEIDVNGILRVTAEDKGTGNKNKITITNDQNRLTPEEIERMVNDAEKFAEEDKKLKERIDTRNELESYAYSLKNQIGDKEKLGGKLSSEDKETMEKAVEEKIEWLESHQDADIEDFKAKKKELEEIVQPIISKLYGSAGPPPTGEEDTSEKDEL

Substance: wildtype hamster BiP, N-terminally hexahistidine-tagged, G3I8R9 19-654 (natural protein; other documents disagree on this pair)
- K (1/2max)^II (concentration of BiP at which half of species II dissociated) [1]: 0.45 µM
- K (1/2max)^III (concentration of BiP at which half of species III dissociated) [1]: 0.74 µM
- stoichiometry N [2]: 2 and 3
